This is an account of results in patent EP4745153A1, “GLP-1, GIP AND GCG RECEPTOR […] USE THEREOF” (Jiangsu Hengrui Pharmaceuticals Co., Ltd., priority 2023, dated 2025).

Common to all, as to experiment: cell-based or functional assay
For assay [1], the target named is T1, human glucagon-like peptide-1 receptor (human, UniProt P43220 24-463).
Assay [2] addresses T2, human glucagon receptor (human, UniProt P47871 26-477).
Assay [3] deals with T3, human glucose-dependent insulinotropic polypeptide receptor (human, UniProt P48546 22-466).
T3 sequence (looked up): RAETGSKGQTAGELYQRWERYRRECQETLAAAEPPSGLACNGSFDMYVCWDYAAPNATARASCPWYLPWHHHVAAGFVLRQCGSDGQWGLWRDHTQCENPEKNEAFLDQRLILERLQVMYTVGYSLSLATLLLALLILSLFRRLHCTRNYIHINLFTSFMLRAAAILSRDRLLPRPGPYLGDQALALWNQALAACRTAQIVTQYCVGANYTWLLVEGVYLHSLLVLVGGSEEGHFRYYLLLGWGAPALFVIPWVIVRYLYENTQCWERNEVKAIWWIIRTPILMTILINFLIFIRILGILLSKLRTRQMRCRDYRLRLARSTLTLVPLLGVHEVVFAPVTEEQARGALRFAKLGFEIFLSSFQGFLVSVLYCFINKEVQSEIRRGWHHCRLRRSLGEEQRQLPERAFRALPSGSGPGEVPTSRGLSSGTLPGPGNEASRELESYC

Assay [4] concerns the target T1, human glucagon-like peptide-1 receptor. The source holds these as a separate data set.
For assay [5], the target named is T2, human glucagon receptor. The source holds these as a separate data set.
For assay [6], the target named is T3, human glucose-dependent insulinotropic …. The source holds these as a separate data set.

Like-named read-outs stand apart in the source and are kept apart here. Starred links: 1 amine or outer side, 2 acyl side, 3 side chain; linkers in the order of their positions; H or OH if unused. Non-standard residues stand in square brackets, D forms with d. Groups on a side chain read outwards from the residue. No end group written: not given here. *: point of attachment. C20 diacid = O=C(O)CCCCCCCCCCCCCCCCCCC(=O)*; γGlu = O=C(O)[C@H](CCC(=O)[*:2])N[*:1]; αMeL = CC(C)C[C@](C)(N)C(=O)O; αMeK = C[C@](N)(CCCCN)C(=O)O; AEEA = NCCOCCOCC(=O)O; Aib = CC(C)(N)C(=O)O

T2 sequence (P47871 26-477): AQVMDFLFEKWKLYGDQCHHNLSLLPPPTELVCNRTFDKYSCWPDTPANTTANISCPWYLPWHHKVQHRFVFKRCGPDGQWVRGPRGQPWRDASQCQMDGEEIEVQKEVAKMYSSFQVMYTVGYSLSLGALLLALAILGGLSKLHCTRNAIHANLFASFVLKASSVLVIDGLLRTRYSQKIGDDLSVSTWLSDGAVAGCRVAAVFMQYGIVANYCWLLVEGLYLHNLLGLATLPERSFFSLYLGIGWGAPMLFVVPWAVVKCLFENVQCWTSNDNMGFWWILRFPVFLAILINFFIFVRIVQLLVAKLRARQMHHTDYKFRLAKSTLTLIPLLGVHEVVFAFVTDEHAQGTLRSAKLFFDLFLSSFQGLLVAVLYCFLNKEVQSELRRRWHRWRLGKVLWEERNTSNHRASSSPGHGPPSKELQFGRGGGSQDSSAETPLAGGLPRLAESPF

As for H[Aib]HGTFTSDYS[αMeK]YLEK([AEEA-AEEA-γGlu-C20 diacid])KAAQEFVEWLIEGGPSSGAPPPS-NH2 [Compound No. 0115], the “Activity against human GLP-1R (EC50 nM)” value in assay [1] turned out to be 0.023 nM. The “Activity against human GCGR (EC50 nM)” value in assay [2] was determined as 0.425 nM. Moreover, in assay [3], the “Activity against human GIPR (EC50 nM)” value amounted to 0.051 nM.

B1: Compound No. 0112 (peptide)
peptide: H[Aib]HGTFTSDYS[αMeK]LLEK([AEEA-AEEA-γGlu-C20 diacid])KAAQEFVEWLLAGGPSSGAPPPS-NH2
modifications: N-terminus assumed
SMILES: CC(C)C[C@H](NC(=O)[C@H](CC(C)C)NC(=O)[C@H](Cc1c[nH]c2ccccc12)NC(=O)[C@H](CCC(=O)O)NC(=O)[C@@H](NC(=O)[C@H](Cc1ccccc1)NC(=O)[C@H](CCC(=O)O)NC(=O)[C@H](CCC(N)=O)NC(=O)[C@H](C)NC(=O)[C@H](C)NC(=O)[C@H](CCCCN)NC(=O)[C@H](CCCCNC(=O)COCCOCCNC(=O)COCCOCCNC(=O)CC[C@H](NC(=O)CCCCCCCCCCCCCCCCCCC(=O)O)C(=O)O)NC(=O)[C@H](CCC(=O)O)NC(=O)[C@H](CC(C)C)NC(=O)[C@H](CC(C)C)NC(=O)[C@](C)(CCCCN)NC(=O)[C@H](CO)NC(=O)[C@H](Cc1ccc(O)cc1)NC(=O)[C@H](CC(=O)O)NC(=O)[C@H](CO)NC(=O)[C@@H](NC(=O)[C@H](Cc1ccccc1)NC(=O)[C@@H](NC(=O)CNC(=O)[C@H](Cc1c[nH]cn1)NC(=O)C(C)(C)NC(=O)[C@@H](N)Cc1c[nH]cn1)[C@@H](C)O)[C@@H](C)O)C(C)C)C(=O)N[C@@H](C)C(=O)NCC(=O)NCC(=O)N1CCC[C@H]1C(=O)N[C@@H](CO)C(=O)N[C@@H](CO)C(=O)NCC(=O)N[C@@H](C)C(=O)N1CCC[C@H]1C(=O)N1CCC[C@H]1C(=O)N1CCC[C@H]1C(=O)N[C@@H](CO)C(N)=O
For B1, the “Activity against human GLP-1R (EC50 nM)” value in assay [1] is 0.031 nM. Also, in assay [2], the “Activity against human GCGR (EC50 nM)” value is 0.087 nM. Besides, in assay [3], the “Activity against human GIPR (EC50 nM)” value is 0.005 nM.

B2: Compound No. 0153 (peptide)
peptide: H[Aib]HGTFTSDYSILLEK([AEEA-AEEA-γGlu-C20 diacid])QAAQEFVEWLLA[dE]GPSSGAPPPS-NH2
modifications: N-terminus assumed
SMILES: CC[C@H](C)[C@H](NC(=O)[C@H](CO)NC(=O)[C@H](Cc1ccc(O)cc1)NC(=O)[C@H](CC(=O)O)NC(=O)[C@H](CO)NC(=O)[C@@H](NC(=O)[C@H](Cc1ccccc1)NC(=O)[C@@H](NC(=O)CNC(=O)[C@H](Cc1c[nH]cn1)NC(=O)C(C)(C)NC(=O)[C@@H](N)Cc1c[nH]cn1)[C@@H](C)O)[C@@H](C)O)C(=O)N[C@@H](CC(C)C)C(=O)N[C@@H](CC(C)C)C(=O)N[C@@H](CCC(=O)O)C(=O)N[C@@H](CCCCNC(=O)COCCOCCNC(=O)COCCOCCNC(=O)CC[C@H](NC(=O)CCCCCCCCCCCCCCCCCCC(=O)O)C(=O)O)C(=O)N[C@@H](CCC(N)=O)C(=O)N[C@@H](C)C(=O)N[C@@H](C)C(=O)N[C@@H](CCC(N)=O)C(=O)N[C@@H](CCC(=O)O)C(=O)N[C@@H](Cc1ccccc1)C(=O)N[C@H](C(=O)N[C@@H](CCC(=O)O)C(=O)N[C@@H](Cc1c[nH]c2ccccc12)C(=O)N[C@@H](CC(C)C)C(=O)N[C@@H](CC(C)C)C(=O)N[C@@H](C)C(=O)N[C@H](CCC(=O)O)C(=O)NCC(=O)N1CCC[C@H]1C(=O)N[C@@H](CO)C(=O)N[C@@H](CO)C(=O)NCC(=O)N[C@@H](C)C(=O)N1CCC[C@H]1C(=O)N1CCC[C@H]1C(=O)N1CCC[C@H]1C(=O)N[C@@H](CO)C(N)=O)C(C)C
For B2, in assay [4], the “Activity against human GLP-1R (EC50 nM)” value stood at 0.051 nM. Also, the “Activity against human GCGR (EC50 nM)” value in assay [5] was 0.334 nM. Moreover, in assay [6], the “Activity against human GIPR (EC50 nM)” value came out at 0.01 nM.

B3: Compound No. 0155 (peptide)
peptide: H[Aib]QGTFTSDYSI[αMeL]LEK([AEEA-AEEA-γGlu-C20 diacid])KAAQEFVEWLLAGGPSSGAPPPS-NH2
modifications: N-terminus assumed
SMILES: CC[C@H](C)[C@H](NC(=O)[C@H](CO)NC(=O)[C@H](Cc1ccc(O)cc1)NC(=O)[C@H](CC(=O)O)NC(=O)[C@H](CO)NC(=O)[C@@H](NC(=O)[C@H](Cc1ccccc1)NC(=O)[C@@H](NC(=O)CNC(=O)[C@H](CCC(N)=O)NC(=O)C(C)(C)NC(=O)[C@@H](N)Cc1c[nH]cn1)[C@@H](C)O)[C@@H](C)O)C(=O)N[C@@](C)(CC(C)C)C(=O)N[C@@H](CC(C)C)C(=O)N[C@@H](CCC(=O)O)C(=O)N[C@@H](CCCCNC(=O)COCCOCCNC(=O)COCCOCCNC(=O)CC[C@H](NC(=O)CCCCCCCCCCCCCCCCCCC(=O)O)C(=O)O)C(=O)N[C@@H](CCCCN)C(=O)N[C@@H](C)C(=O)N[C@@H](C)C(=O)N[C@@H](CCC(N)=O)C(=O)N[C@@H](CCC(=O)O)C(=O)N[C@@H](Cc1ccccc1)C(=O)N[C@H](C(=O)N[C@@H](CCC(=O)O)C(=O)N[C@@H](Cc1c[nH]c2ccccc12)C(=O)N[C@@H](CC(C)C)C(=O)N[C@@H](CC(C)C)C(=O)N[C@@H](C)C(=O)NCC(=O)NCC(=O)N1CCC[C@H]1C(=O)N[C@@H](CO)C(=O)N[C@@H](CO)C(=O)NCC(=O)N[C@@H](C)C(=O)N1CCC[C@H]1C(=O)N1CCC[C@H]1C(=O)N1CCC[C@H]1C(=O)N[C@@H](CO)C(N)=O)C(C)C
Turning to B3, in assay [4], the “Activity against human GLP-1R (EC50 nM)” value worked out at 0.036 nM. Further, the “Activity against human GCGR (EC50 nM)” value in assay [5] came to 3.65 nM. In assay [6], the “Activity against human GIPR (EC50 nM)” value stood at 0.014 nM.

B4: Compound No. 0154 (peptide)
peptide: H[Aib]QGTFTSDYSILLEK([AEEA-AEEA-γGlu-C20 diacid])KAAQEFVEWLLAGGPSSGAPPPS-NH2
modifications: N-terminus assumed
SMILES: CC[C@H](C)[C@H](NC(=O)[C@H](CO)NC(=O)[C@H](Cc1ccc(O)cc1)NC(=O)[C@H](CC(=O)O)NC(=O)[C@H](CO)NC(=O)[C@@H](NC(=O)[C@H](Cc1ccccc1)NC(=O)[C@@H](NC(=O)CNC(=O)[C@H](CCC(N)=O)NC(=O)C(C)(C)NC(=O)[C@@H](N)Cc1c[nH]cn1)[C@@H](C)O)[C@@H](C)O)C(=O)N[C@@H](CC(C)C)C(=O)N[C@@H](CC(C)C)C(=O)N[C@@H](CCC(=O)O)C(=O)N[C@@H](CCCCNC(=O)COCCOCCNC(=O)COCCOCCNC(=O)CC[C@H](NC(=O)CCCCCCCCCCCCCCCCCCC(=O)O)C(=O)O)C(=O)N[C@@H](CCCCN)C(=O)N[C@@H](C)C(=O)N[C@@H](C)C(=O)N[C@@H](CCC(N)=O)C(=O)N[C@@H](CCC(=O)O)C(=O)N[C@@H](Cc1ccccc1)C(=O)N[C@H](C(=O)N[C@@H](CCC(=O)O)C(=O)N[C@@H](Cc1c[nH]c2ccccc12)C(=O)N[C@@H](CC(C)C)C(=O)N[C@@H](CC(C)C)C(=O)N[C@@H](C)C(=O)NCC(=O)NCC(=O)N1CCC[C@H]1C(=O)N[C@@H](CO)C(=O)N[C@@H](CO)C(=O)NCC(=O)N[C@@H](C)C(=O)N1CCC[C@H]1C(=O)N1CCC[C@H]1C(=O)N1CCC[C@H]1C(=O)N[C@@H](CO)C(N)=O)C(C)C
On to B4, for which the “Activity against human GLP-1R (EC50 nM)” value in assay [4] turned out to be 0.033 nM. The “Activity against human GCGR (EC50 nM)” value in assay [5] worked out at 1.62 nM. Further, the “Activity against human GIPR (EC50 nM)” value in assay [6] was determined as 0.031 nM.

B5: Compound No. 0152 (peptide)
peptide: H[Aib]HGTFTSDYSILLEK([AEEA-AEEA-γGlu-C20 diacid])QAAQEFVEWLLAGGPSSGAPPPS-NH2
modifications: N-terminus assumed
SMILES: CC[C@H](C)[C@H](NC(=O)[C@H](CO)NC(=O)[C@H](Cc1ccc(O)cc1)NC(=O)[C@H](CC(=O)O)NC(=O)[C@H](CO)NC(=O)[C@@H](NC(=O)[C@H](Cc1ccccc1)NC(=O)[C@@H](NC(=O)CNC(=O)[C@H](Cc1c[nH]cn1)NC(=O)C(C)(C)NC(=O)[C@@H](N)Cc1c[nH]cn1)[C@@H](C)O)[C@@H](C)O)C(=O)N[C@@H](CC(C)C)C(=O)N[C@@H](CC(C)C)C(=O)N[C@@H](CCC(=O)O)C(=O)N[C@@H](CCCCNC(=O)COCCOCCNC(=O)COCCOCCNC(=O)CC[C@H](NC(=O)CCCCCCCCCCCCCCCCCCC(=O)O)C(=O)O)C(=O)N[C@@H](CCC(N)=O)C(=O)N[C@@H](C)C(=O)N[C@@H](C)C(=O)N[C@@H](CCC(N)=O)C(=O)N[C@@H](CCC(=O)O)C(=O)N[C@@H](Cc1ccccc1)C(=O)N[C@H](C(=O)N[C@@H](CCC(=O)O)C(=O)N[C@@H](Cc1c[nH]c2ccccc12)C(=O)N[C@@H](CC(C)C)C(=O)N[C@@H](CC(C)C)C(=O)N[C@@H](C)C(=O)NCC(=O)NCC(=O)N1CCC[C@H]1C(=O)N[C@@H](CO)C(=O)N[C@@H](CO)C(=O)NCC(=O)N[C@@H](C)C(=O)N1CCC[C@H]1C(=O)N1CCC[C@H]1C(=O)N1CCC[C@H]1C(=O)N[C@@H](CO)C(N)=O)C(C)C
As for B5, the “Activity against human GLP-1R (EC50 nM)” value in assay [4] turned out to be 0.054 nM. The “Activity against human GCGR (EC50 nM)” value in assay [5] was found to be 0.29 nM. Further, the “Activity against human GIPR (EC50 nM)” value in assay [6] is 0.009 nM.
